± gives the uncertainty stated by the source.
Test: protein stability index of a GFP-peptide fusion (yeast GPS) (PSI 1-4); higher = more stable; sorted into four equal gates, so the index is relative within each strain
Outline: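 The protein stability index combines read frequencies across sorting gates, each weighted by its gate number and then summed. To obtain those frequencies, a pooled yeast library of GFP fusions to tiled 17-residue yeast protein peptides, on a plasmid also expressing Cherry, was grown to mid-log phase in leucine-free medium. The cells were sorted into four equal gates by GFP/Cherry ratio before plasmid amplification by PCR and Illumina sequencing.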

| Sequence | protein stability index (doa10∆) | protein stability index (pdr5∆) | protein stability index (san1∆) | protein stability index (ubr1∆) |
| --- | --- | --- | --- | --- |
| GSKKGQEGKISSVYRLK [RPL26A] | 3.15 ± 0.11 | 2.94 ± 0.096 | 2.7 ± 0.086 | 3.33 ± 0.11 |
| NVSIVANYIKERTKNAQ [SMC4] | 3.02 ± 0.12 | 3.14 ± 0.065 | 2.91 ± 0.05 | 3.18 ± 0.061 |
| MGNTKVHCRISCQIAQP [RRP45] | 1.64 ± 0.059 | 2.04 ± 0.079 | 1.56 ± 0.1 | 1.91 ± 0.056 |
| RSTDRDRVKVIECFKPG [CSL4] | 3.14 ± 0.14 | 3.1 ± 0.2 | 3.26 ± 0.1 | 2.99 ± 0.088 |
| SDIPKTTVQVAEEAIVN [PRE4] | 2.92 ± 0.12 | 2.72 ± 0.09 | 1.81 ± 0.28 | 2.54 ± 0.091 |
| SKAPAEKKPAAKKTSTS [HTB1] | 3.17 ± 0.13 | 3.01 ± 0.069 | 2.83 ± 0.08 | 3.33 ± 0.11 |
| RLENKLSEIESLDEILL [SRP68] | 2.97 ± 0.095 | 2.99 ± 0.11 | 2.92 ± 0.11 | 3 ± 0.085 |
| ISLLCKNFKGIEEIEYN [PCI8] | 2.94 ± 0.082 | 3.31 ± 0.075 | 3.11 ± 0.04 | 3.01 ± 0.061 |
| IIGPNGSGKSNMMDAIS [SMC1] | 3.06 ± 0.13 | 3.24 ± 0.089 | 3.03 ± 0.075 | 3.28 ± 0.05 |
| DSLTRAVKDQQKYTKEM [SNF2] | 1.47 ± 0.19 | 1.8 ± 0.11 | 1.25 ± 0.15 |  |
| LPLWHLLNRIPRMYHIG [POP1] | 3.06 ± 0.17 | 2.97 ± 0.15 | 2.06 ± 0.21 | 2.63 ± 0.15 |
| HALYLAPSGIRMHLAPA [SSN2] | 1.32 ± 0.085 | 2.05 ± 0.085 | 2.09 ± 0.13 | 2.04 ± 0.061 |
| TLVKGPKEPRLKSQMDT [SKI6] | 3.09 ± 0.25 | 3.05 ± 0.13 |  | 3.33 ± 0.091 |
| PWGDYLQLETPAEVGRA [BRR2] | 1.25 ± 0.062 | 1.8 ± 0.09 | 1.47 ± 0.088 | 1.19 ± 0.049 |
| AKIYPGRGTLFVRGDSK [RPL24A] | 1.1 ± 0.075 | 1.77 ± 0.12 | 1.97 ± 0.15 | 2.04 ± 0.085 |
| YIEDGRNPDIYTREFVE [NUT2] | 3.39 ± 0.066 | 3.38 ± 0.054 | 3.13 ± 0.044 | 3.33 ± 0.04 |
| QFQKARNNVMLLIATNL [SRB8] | 1.74 ± 0.11 | 1.81 ± 0.1 | 2.24 ± 0.13 | 1.93 ± 0.071 |
| EPIDQNTGIVSSTTGMS [RPT3] | 3.15 ± 0.11 | 2.65 ± 0.22 | 3.39 ± 0.14 | 3.24 ± 0.089 |
| QEEEGELEHLTKKSKLE [DSN1] | 3.02 ± 0.053 | 3.17 ± 0.056 | 3.14 ± 0.043 | 3.18 ± 0.043 |
| TSRVTGILLLDSLIQLA [YJL039C/NUP192] | 1.85 ± 0.062 | 1.77 ± 0.056 | 1.59 ± 0.094 | 1.95 ± 0.048 |
| YDSRGVGEMKLLKKKDD [YLR335W/NUP2] | 2.51 ± 0.098 | 2.64 ± 0.17 | 2.52 ± 0.1 | 2.6 ± 0.17 |
| AGTQSSKFSKQQAKGAF [RPL24A] | 3.2 ± 0.063 | 3.27 ± 0.062 | 3.27 ± 0.035 | 3.17 ± 0.049 |
| QPSDVMFNDLNSMDISM [MED2] | 2.63 ± 0.043 | 2.99 ± 0.053 | 3.11 ± 0.043 | 2.76 ± 0.048 |
| LEKDAADCQAELTKTKS [YIL149C/MLP2] | 2.94 ± 0.13 | 2.76 ± 0.26 | 2.75 ± 0.18 | 2.87 ± 0.1 |
| YLEELQRKKQSDVLRFL [RPL15A] | 1.38 ± 0.16 | 2.25 ± 0.21 | 1.72 ± 0.26 | 1.5 ± 0.097 |
| IVNVNFMKSVIRSREAF [DIS3] | 2.75 ± 0.065 | 2.77 ± 0.062 | 2.2 ± 0.098 | 2.31 ± 0.04 |
| NQQQQNQQPQQQQQQQQ [SWI1] | 3.06 ± 0.049 | 2.93 ± 0.037 | 2.88 ± 0.03 | 2.83 ± 0.032 |

| Sequence | protein stability index (doa10∆) | protein stability index (pdr5∆) | protein stability index (san1∆) | protein stability index (ubr1∆) |
| --- | --- | --- | --- | --- |
| TDQLIQNIETRQLANLI [NUT1] | 3.15 ± 0.11 | 3.14 ± 0.12 | 2.94 ± 0.13 | 3.01 ± 0.051 |
| TVKTNDELMVIYISNLV [RPN8] | 1.66 ± 0.12 | 1.5 ± 0.063 | 1.51 ± 0.15 | 1.29 ± 0.078 |
| QLVLRGLLSQAIGCIER [YJR042W/NUP85] | 1.98 ± 0.11 | 2.15 ± 0.073 | 1.71 ± 0.099 | 2.3 ± 0.076 |
| TQVRVEFLEDTSRTIVR [RPS28A] | 3.37 ± 0.24 | 3.06 ± 0.13 | 2.91 ± 0.095 | 3.3 ± 0.14 |
| DTNNEADLMALENATWT [SNF12] | 2.58 ± 0.074 | 3.18 ± 0.11 | 2.64 ± 0.087 | 2.94 ± 0.09 |
| KNAVVRSKFGGDFLDFQ [ARP7] | 3 ± 0.13 | 2.57 ± 0.12 | 3.31 ± 0.094 | 3.21 ± 0.083 |
| TLERVHLSYCSNLTIYP [GRR1] | 2.92 ± 0.067 | 3 ± 0.067 | 2.99 ± 0.15 | 3 ± 0.05 |
| KLRRECSNPTCGAGVFL [RPS31] | 1.78 ± 0.048 | 2.44 ± 0.065 | 2.11 ± 0.07 | 1.86 ± 0.038 |
| ILDGLTVRLVNLFSSTG [SRB2] | 3.1 ± 0.15 | 3.03 ± 0.16 |  |  |
| AAELLDKRIVISIDSWP [DIS3] | 1.61 ± 0.062 | 1.87 ± 0.09 | 1.55 ± 0.14 | 1.95 ± 0.072 |
| EQVKDDGTSTEKTFLHL [RPN8] | 3.28 ± 0.12 | 3.66 ± 0.13 | 3.42 ± 0.05 | 3.46 ± 0.082 |
| ENGQRDLDRIAAQTLEE [RPS19A] | 3.2 ± 0.084 | 3.16 ± 0.086 | 3.28 ± 0.097 | 3.19 ± 0.093 |
| LTSVTRHGFNRSNTGAL [RPO21] | 2.48 ± 0.067 | 2.39 ± 0.063 | 2.75 ± 0.093 | 2.51 ± 0.058 |
| RIKLATTSERVSNENKK [RRI1] | 2.88 ± 0.063 | 3.08 ± 0.071 | 2.94 ± 0.066 | 3.1 ± 0.11 |
| LIEPLPTESYLQYIIHD [BRR2] | 2.42 ± 0.083 | 2.96 ± 0.065 | 2.58 ± 0.096 | 2.49 ± 0.049 |
| NISRDFQSYIVSSLPGS [COR1] | 1.63 ± 0.093 | 2.14 ± 0.095 | 2.08 ± 0.098 | 1.85 ± 0.048 |
| KINQERLERRINLTKVT [CSI1] | 1.91 ± 0.062 | 1.96 ± 0.062 | 1.4 ± 0.095 | 1.37 ± 0.045 |
| MKLDDSSKTRNVLNRIQ [ITC1] | 1.78 ± 0.082 | 1.3 ± 0.051 | 2.71 ± 0.12 | 1.38 ± 0.056 |
| FVKKTSEEIDSLNEDVE [SMC2] | 2.97 ± 0.17 | 3.2 ± 0.19 |  |  |
| SIIQSKQDCVDWFTYSY [BRR2] | 1.58 ± 0.037 | 1.78 ± 0.037 | 1.69 ± 0.085 | 1.97 ± 0.033 |
| RERIKRGAHVEKTMVKK [PRP8] |  |  |  | 2.78 ± 0.18 |
| TIHRSFTICLNDRNPRL [CSN12] | 2.82 ± 0.065 | 2.76 ± 0.063 | 2.72 ± 0.069 | 2.65 ± 0.043 |
| ITRLCQTLGLESFTEEL [MED1] | 2.54 ± 0.054 | 2.81 ± 0.063 | 1.59 ± 0.16 | 2.51 ± 0.056 |
| DEHNELMRQALAIKDSK [RPO21] | 2.61 ± 0.05 | 2.93 ± 0.063 | 2.29 ± 0.058 | 2.91 ± 0.044 |
| EEASQLIEYMENDAKKS [NUT1] | 2.95 ± 0.081 | 3.2 ± 0.067 | 3.15 ± 0.061 | 3.04 ± 0.048 |
| LGSHSSSQKDGNDFKFN [REC8] | 3.25 ± 0.07 | 3.24 ± 0.063 | 2.91 ± 0.081 | 3.22 ± 0.057 |

Reference: the supplement of paper PMC9732359
